The chains are these.
T1: hBack
T1 chimeric human/tetraodon Sortilin extracellular region, BAP tag: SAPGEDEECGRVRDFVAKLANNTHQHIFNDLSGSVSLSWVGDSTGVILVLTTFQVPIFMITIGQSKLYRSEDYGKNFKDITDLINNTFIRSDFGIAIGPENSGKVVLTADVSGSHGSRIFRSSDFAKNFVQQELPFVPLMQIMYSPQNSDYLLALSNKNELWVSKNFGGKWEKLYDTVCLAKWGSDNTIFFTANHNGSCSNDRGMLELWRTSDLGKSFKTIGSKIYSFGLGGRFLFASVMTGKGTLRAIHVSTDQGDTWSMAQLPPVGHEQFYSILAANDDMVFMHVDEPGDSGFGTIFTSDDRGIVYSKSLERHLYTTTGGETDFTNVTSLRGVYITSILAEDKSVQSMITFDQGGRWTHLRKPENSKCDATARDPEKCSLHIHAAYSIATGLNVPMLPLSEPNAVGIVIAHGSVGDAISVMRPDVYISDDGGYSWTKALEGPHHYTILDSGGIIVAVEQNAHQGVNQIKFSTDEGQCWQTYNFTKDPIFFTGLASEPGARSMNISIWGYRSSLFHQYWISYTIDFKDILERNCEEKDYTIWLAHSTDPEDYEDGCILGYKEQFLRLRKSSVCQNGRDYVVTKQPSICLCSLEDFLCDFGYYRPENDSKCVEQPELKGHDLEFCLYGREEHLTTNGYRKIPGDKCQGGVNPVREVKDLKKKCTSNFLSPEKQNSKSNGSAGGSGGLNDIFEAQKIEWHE

T2: Sortilin hSORTECDBAP (human, UniProt Q99523 78-755)
T2 sequence: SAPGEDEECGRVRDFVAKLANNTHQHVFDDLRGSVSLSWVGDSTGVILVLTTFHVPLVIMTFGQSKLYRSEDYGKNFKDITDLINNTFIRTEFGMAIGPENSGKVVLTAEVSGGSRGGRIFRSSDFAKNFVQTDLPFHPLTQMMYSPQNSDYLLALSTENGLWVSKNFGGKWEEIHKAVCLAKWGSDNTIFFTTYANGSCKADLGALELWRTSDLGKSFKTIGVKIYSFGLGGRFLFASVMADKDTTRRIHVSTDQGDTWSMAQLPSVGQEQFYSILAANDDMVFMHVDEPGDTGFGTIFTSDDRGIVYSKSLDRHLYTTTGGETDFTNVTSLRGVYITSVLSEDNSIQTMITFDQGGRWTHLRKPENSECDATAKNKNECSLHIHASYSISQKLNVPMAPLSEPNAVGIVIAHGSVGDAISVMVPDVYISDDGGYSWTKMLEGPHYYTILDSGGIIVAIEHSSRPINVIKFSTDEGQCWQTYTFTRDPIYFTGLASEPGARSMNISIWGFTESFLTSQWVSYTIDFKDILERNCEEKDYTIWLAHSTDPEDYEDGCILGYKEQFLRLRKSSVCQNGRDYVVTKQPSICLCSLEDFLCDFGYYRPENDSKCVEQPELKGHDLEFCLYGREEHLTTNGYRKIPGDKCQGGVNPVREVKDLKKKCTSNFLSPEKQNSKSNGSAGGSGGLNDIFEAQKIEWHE

T3: Sortilin SORTECDBAP_hB45678 (human/tetraodon chimera)
T3 construct: Shuffle construct: chimeric human/tetraodon Sortilin ECD with BAP tag
T3 chain: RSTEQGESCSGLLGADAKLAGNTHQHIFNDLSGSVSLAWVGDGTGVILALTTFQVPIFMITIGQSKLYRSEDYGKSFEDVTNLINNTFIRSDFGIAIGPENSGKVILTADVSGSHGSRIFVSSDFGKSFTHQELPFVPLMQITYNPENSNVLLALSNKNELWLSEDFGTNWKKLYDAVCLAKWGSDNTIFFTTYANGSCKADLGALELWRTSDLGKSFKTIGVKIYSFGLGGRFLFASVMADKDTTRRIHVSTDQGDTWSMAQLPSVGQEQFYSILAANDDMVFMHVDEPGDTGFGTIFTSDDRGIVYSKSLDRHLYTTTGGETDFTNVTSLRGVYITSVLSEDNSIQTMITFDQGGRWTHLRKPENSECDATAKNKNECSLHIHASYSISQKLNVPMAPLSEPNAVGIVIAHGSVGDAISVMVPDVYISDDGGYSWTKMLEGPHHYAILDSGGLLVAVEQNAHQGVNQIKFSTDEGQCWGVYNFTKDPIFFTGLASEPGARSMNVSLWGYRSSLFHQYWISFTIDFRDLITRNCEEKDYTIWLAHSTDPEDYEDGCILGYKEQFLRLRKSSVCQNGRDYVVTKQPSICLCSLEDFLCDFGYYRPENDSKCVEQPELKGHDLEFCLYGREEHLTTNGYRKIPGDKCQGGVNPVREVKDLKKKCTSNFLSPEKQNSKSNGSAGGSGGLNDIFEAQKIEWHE

B1: IgG1-6003-910 (antibody, V domains shown)
VH: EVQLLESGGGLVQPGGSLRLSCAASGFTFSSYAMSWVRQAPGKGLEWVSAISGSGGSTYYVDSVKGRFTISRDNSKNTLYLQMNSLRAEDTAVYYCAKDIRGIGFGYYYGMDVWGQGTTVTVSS
VL: EIVLTQSPATLSLSPGERATLSCRASQSVSSYLVWYQQKPGQAPRLLIYDASNRATGIPARFSGSGSGTDFTLTISSLEPEDFAVYYCQQRSNWPPTFGQGTRLEIK
notes: also called Antibody 6003-910
B2: IgG1-6003-972 (antibody, V domains shown)
VH: QVQLVESGGGVVQPGRSLRLSCAASGFTFSDYAMHWVRRAPGKGLEWVVVISYDGSNKYYADSVKGRFTISRDNSKNTLYLQMNSLRAEDTAVYYCARDPSGGWYFDLWGRGTLVTVSS
VL: B1 VL with V34A, V85L, N93H, P96R, R103K, L104V
notes: also called Antibody 6003-972
B3: Antibody 6003-799 (antibody, human IgG1, V domains shown)
VH: QVQLVESGGGVVQPGRSLRLSCAASGFTFSSYGMHWVRQAPGKGLEWVTVISYDGSNKYYADSVKGRFTISRDNSKNTLYLQMNSLRAEDTAVYYCAKLTGDAFDIWGQGTMVTVSS
VL: EIVLTQSPATLSLSPGERATLSCRASQSVSSYLVWYQQKPGQAPRLLIYHASNRATGIPARFSGSGSGTDFTLTISSLEPEDFAVYYCQQRSNWPRITFGQGTRLEIK
B4: Antibody 6003-886 (antibody, human IgG1, V domains shown)
VH: QVQLVQSGAEVKKPGASVKVSCKASGYTFTKYGISWVRQAPGQGLEWMGWISAYNGNTNYAQKLQDRVTMTTDTFTSTAYMELRSLRSDDTAVYFCARDGPLTGDFTFYGMDVWGQGTTVTVSS
VL: B3 VL with V34A, H50D, R96P, I97F, Q101P, R104K, L105V, E106D
B5: Antibody 6003-822 (antibody, human IgG1, V domains shown)
VH: EVQLLESGGGLVQPGESLTLSCAASGFTLSSYAMSWVRQAPGKGLEWVSSISGRLGTTYYAASVKGRFTISRDNSKNTLYLQMNSLRAEDTAIYSCAKAPSDAFDIWGQGTMVTVSS
VL: B3 VL with V34A, H50D, R96I, I97F, Q101P, R104K, L105V, E106D
B6: Antibody 6003-900 (antibody, human IgG1, V domains shown)
VH: EVQLVESGGGLVKPGGSLRLSCAASGFTFSSYSMNWVRQAPGKGLEWVSSISSSSSYIYYADSVKGRFTISRDNAKNSLYLQMNSLRAEDTAVYYCARRGSGSYDAFDIWGQGTMVTVSS
VL: EIVLTQSPDFQSVTPKEKVTITCRASQSIGYSLHWYQQKPDQSPKLLIKYASQSFSGVPSRFSGSGSGTDFTLTINSLEAEDAAAYYCHQSSSLPLTFGGGTKVEIK
notes: also called antibody 900; Sortilin human antibody 900

Where a chain is given by its changes, count along the chain named.

The first test deals with T1, hBack. As to the kind of experiment: BLI (Octet384RED).
As usually defined, the EC50 is the concentration needed to bring the measured effect to its halfway point. Turning to B1, the response was half-maximal at 1.54 ng/mL (EC50).

Molecule B2 gave an EC50 of 1.49 ng/mL.

B3 returned an EC50 of 3.2 ng/mL.

As for B4, the response was half-maximal at 2.72 ng/mL (EC50).

For the molecule B5, the response was half-maximal at 2.59 ng/mL (EC50).

Molecule B6 showed an EC50 of 1.16 ng/mL.

The target in a further test is T2, Sortilin hSORTECDBAP
The test is described as follows: BLI (Octet384RED).
For the molecule B1, the EC50 amounted to 1.34 ng/mL.

Molecule B2 registered an EC50 of 1.35 ng/mL.

Regarding B3, the EC50 was determined as 3.49 ng/mL.

As for B4, the EC50 came out at 3.4 ng/mL.

Take B5: the EC50 was determined as 1.97 ng/mL.

Molecule B6 had an EC50 of 1.06 ng/mL.

Another test concerns the target T3, Sortilin SORTECDBAP_hB45678. As to the kind of experiment: BLI (Octet384RED).
Molecule B1 gave an EC50 of 2.23 ng/mL.

B2 gave an EC50 of 2.57 ng/mL.

Take B3: the EC50 is 4.16 ng/mL.

For the molecule B4, the EC50 is 3.45 ng/mL.

B5 yielded an EC50 of 2.08 ng/mL.

On to B6, for which the EC50 amounted to 1.19 ng/mL.

These data come from patent US20210292414A1 (H LUNDBECK A S, published 2021).
